Test results as given in the supplement of paper PMC12764529.
± gives the half width of the 95% confidence interval.

Test: folding stability dG unfold from trypsin proteolysis; higher = more stable
Summary of the method: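 Digests were run with trypsin and chymotrypsin at 11 concentrations in threefold dilutions, plus a no-protease condition, on designed mini-proteins in a PA-tagged cDNA display construct. The mini-proteins were under 80 residues, had no cysteine, and were kept only when AlphaFold2 dimer inter-PAE was above 15. After sequencing, Bayesian fitting of the counts gave K50, from which unfolding free energy was derived against a sequence-predicted unfolded-state K50 and a shared folded-state K50, per protease or combined.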

“SAGGSAGGMKVTISSKGLPATITYYDPRNGTSTTVPINGDPEAAVAALKEATGLDVTDVTVTVESAGGSAGG [r6_763_JUSTAS]” and “SAGGSAGGSAGVSTTPDGVLVIKVKDPNTGKYTEIKVPTSRPEEAEKLKEKALEEGLELESAGGSAGGSAGG [r11_538_JUSTAS]” are within error of each other in “folding stability dG unfold” value: 2.97 ± 0.167 kJ/mol for the first, 2.96 ± 0.159 kJ/mol for the second.

Compared with “SAGMLPPEETVTLTLTFPASSPLSLEEILARTPDVEVLSLKREALPDDTVRLTITVRPDHVARVRAALASAG [r5_554_JUSTAS]”, “SAGGSAGGSAGPPPFKLKIDEMEMADDMFRIKLTIEDPNGEVTVDYWIGNQPFKLRIKPDSAGGSAGGSAGG [r17_45_TrROS]” is lower in “folding stability dG unfold” value: 14.1 ± 0.226 kJ/mol for the first, 6.42 ± 0.163 kJ/mol for the second.

First: SAGGSAGGSAKEIDFKFRSPGNGEEFPFRVEIDEFDPDDGPLLIKVEMPNGKPHTFPADDILSAGGSAGGSA [r18_334_TrROS]
Second: SAGKSVKLSISVNPDNNSITITLEVEFKPDEKINIPAKFYLKDKEFNANYSVTKTPDGKAIATFTIELDSAG [r5_596_TrMRF]
The “folding stability dG unfold” value of the first is lower: 0.422 ± 0.36 kJ/mol for the first, 11.2 ± 1.13 kJ/mol for the second.

Going from “SEVVLEVKVEVRVKRNENGELEVEVKVEVKLVELEPPEPRIELSEEEREKLKEEAEKLGLELTDEELEALSA [r9_487_TrROS_Hall]” to “SAGMEKKTFTFPTRTVLVVRGPDGTVLVVVDDPDGDPEVLTPDGTPVPYVDLPNGQRLYRFPAALFEKVSAG [r5_457_TrMRF]”, the “folding stability dG unfold” value rises from 7.96 ± 0.544 kJ/mol to 8.8 ± 0.146 kJ/mol.

Compared with “SAGTAEEAKELARFFARELAPRNGMDVEIPDIKVETDPENGWIRITVEITFRWPHGRKQKHPFTIQIPVSAG [r5_381_TrROS]”, “SAGGMKIEIVEVTPTRIRIRLENGEVLTLEEIRKLLEEEGLPEPMTVDQIAELLRKRGLKITEIEIVPSAGG [r13_610_TrROS_Hall]” is higher in “folding stability dG unfold” value: 6.19 ± 0.197 kJ/mol for the first, 12.4 ± 0.218 kJ/mol for the second.

Compared with “SAGGSAGGSASPIHATVSVDPETGTYTVHYPDGSTKTITGLSPEEVAALAKEMGIDEITLESAGGSAGGSAG [r3_78_JUSTAS]”, “SAGGSAGGKLVVLLVRRPDGSLALRVTDAENPAEALEAARRNGMEALPLEVDDLEEFLEAIGLGSAGGSAGG [r6_495_TrMRF]” is lower in “folding stability dG unfold” value: 12.6 ± 0.335 kJ/mol for the first, 3.66 ± 0.318 kJ/mol for the second.

Compared with “SAGKALSPEELARYVREKYGLPADAPITIEEVPGKYTLSLPDLRVEVTVTDDTTTVTLRPPDPGPEAALSAG [r5_190_JUSTAS]”, “SAGGSAGGSAKYKPIGELEFEFENGIRLRVTFYEGEGEKIAIVEIEIPEPSLEEAIKILESSAGGSAGGSAG [r3_158_TrMRF]” is higher in “folding stability dG unfold” value: 4.06 ± 0.184 kJ/mol for the first, 8.93 ± 0.397 kJ/mol for the second.

First: SAGGSAGGSAGGMKTIVVPKDELEKLKEELEKKGKKVETSEDGTWTVDGKPVKVVVEPGSAGGSAGGSAGGS [r10_930_JUSTAS]
Second: SAGGSAGGKEPFTVDKVEATVPFPGADGTEGVVLVTLPNGEKRLIPASELPLENLQPDGTVSSASAGGSAGG [r6_609_TrMRF]
The “folding stability dG unfold” value of the first is higher: 1.47 ± 0.259 kJ/mol for the first, 0.672 ± 0.142 kJ/mol for the second.

Going from “SMRVRPDGYAVVIEVRVTEDAGPPPPPFEAIRDPETDRVTVVAGATPEEIVAFAEFPGVEVERIEVIPLLSA [r9_827_TrMRF]” to “SAGGSAGGSAGAGSWKDALKASSNETVTIPLPPTGKTLKITFSKSDDGSWKVDIEVFPAESAGGSAGGSAGG [r11_13_TrMRF]”, the “folding stability dG unfold” value rises from 1 ± 0.418 kJ/mol to 8.48 ± 0.544 kJ/mol.

“SAGGPGMKMEPIAQIEFPGGRKITIHRMEMPNGNKMVNVNIMNPNGKTKTVMVPMGDIDEAIDALKLSAGGS [r16_588_TrROS]” and “SAGGSAGGSAMKIEIEKTEDTIKVRIKRKDGKEIEIEIPKENMSLEEIKKLAEELGIEKVEPSAGGSAGGSA [r18_83_TrROS_Hall]” are within error of each other in “folding stability dG unfold” value: 6.89 ± 0.151 kJ/mol for the first, 6.22 ± 0.711 kJ/mol for the second.

Going from “SAGGMTVKITIEVEEPGKTAEELAEELARELEKAGFKVEVVSVEVEEVDGRLIVTIEVKVDSEEALKASAGG [r13_979_TrROS_Hall]” to “SAGGSAGGMTVTIELPGSTYTVELPSSVKSVSELKVLEDGTLVLTFPSTGTTVTVPIPPPGSHHSAGGSAGG [r6_370_JUSTAS]”, the “folding stability dG unfold” value falls from 9.88 ± 0.23 kJ/mol to 4.3 ± 0.247 kJ/mol.

Compared with “SAGGASVDRELTDPVTGDKIEVTITRLPDGSWLIEVTVTDAEGKTTKYPKTFPPGSYTPEDTIDFTKDSAGG [r13_959_JUSTAS]”, “SAGGPEIVKLDFTLDPNGNLVFTFELKDGTKYEIKINPENPTIEIKEIEKIEPKPIPEDDPELLKEKSAGGS [r16_482_TrMRF]” is lower in “folding stability dG unfold” value: 8.05 ± 0.837 kJ/mol for the first, 6.46 ± 0.711 kJ/mol for the second.

First: SAGGSAGGSAGKKPEKYILIKVKKEDVEKLLEAIKKLLPPGAEIVKIEKTPEYVYIVVKLSAGGSAGGSAGG [r11_698_TrROS_Hall]
Second: SAGMATTTELPNGFLTTYEDGTTSFIPAEPPEVPVTTVPVTSPEEAAAAVAAAGLSVEVVTADSVTAPASAG [r5_328_JUSTAS]
The “folding stability dG unfold” value of the first is higher: 14.2 ± 0.544 kJ/mol for the first, 8.62 ± 0.381 kJ/mol for the second.

First: SPRIEVRKLPDGTELVRIEIPTPEGNPVVVEATVTYDPETGTVTQEVTLTDPNVPPEVKALLESFTLTVPSA [r9_715_JUSTAS]
Second: SAGSTAELVGHPDGVELRTELRGEELVFVLPAPKDVLVVAYDPATGALVLGVPVGDRVLVLVRPPPHPSAGG [r19_384_TrMRF]
The “folding stability dG unfold” value of the first is lower: 4.67 ± 0.0795 kJ/mol for the first, 10.6 ± 0.331 kJ/mol for the second.

Going from “SAGGMKFKIVKIEVKEDKVTIEIEAETEEELEEAKKLAEELAKKLGLSKEKIEVKIELRPPPEEEEEESAGG [r13_430_TrROS_Hall]” to “SAGGSAGGMLSPEEAEAIARALEAAGRPVTELVVTEHPEGTATVTLTVRYPDGSTETLPLSLPASAGGSAGG [r6_762_JUSTAS]”, the “folding stability dG unfold” value falls from 10.2 ± 0.962 kJ/mol to 5.32 ± 0.146 kJ/mol.

With “SAGGSAGGSAGDPGERPYVEVTVRIPITPGLEIPWWIPPENMPPEDAEKFAQDIAKEFLDSAGGSAGGSAGG [r11_409_TrROS]” the “folding stability dG unfold” value was 3.72 ± 0.197 kJ/mol.
